Assay [1] has as its target T1, EGFR (Homo sapiens, UniProt P00533). The experiment in a line: Ligand-induced receptor ubiquitination assay (MCAS, MLS, H358, A549 cells). As to conditions: 10 minutes, ligand 100 ng/mL; MCAS, MLS, H358, A549 cells. The arrangement: endogenous in cells; host or cells: MCAS, MLS, H358, A549. The assay is classed as cell-based. The method, then: (§1) The cells were later washed and lysed, and the associated radioactivity was determined. […] The cells were later washed and lysed in 1 N NaOH. Cell-associated radioactivity was determined. […] Washed immunocomplexes, along with whole extracts, were immunoblotted with the indicated antibodies.
For determination of ligand-induced receptor ubiquitination, cells were extracted in lysis buffer (50 mM HEPES pH 7.5, 150 mM NaCl, 10% glycerol, 1% Triton X-100, 1 mM EDTA, 1 mM EGTA, 10 mM NaF and 30 mM 3-glycerol phosphate) with freshly added 0.2 mM Na3VO4, a protease inhibitor cocktail and 2 mM N-ethylmaleimide (NEM). Twenty μL of protein G agarose beads and 1 μg of antibody were added to 500 μg of protein lysate. After a 2 hour incubation at 4° C., the immunoprecipitates were collected by centrifugation at 14,000 rpm at 4° C. for 1 minute. The supernatant was discarded and the pellet was washed thrice, prior to electrophoresis.

The target in assay [2] is T1, EGFR. The assay can be described thus: Receptor downregulation assay in MCAS cells. The note with it: ligand 10 ng/ml. Format: cell-based. The arrangement: endogenous in cells; host or cells: MCAS, MLS, H358, A549. The method, then: as §1
At the end of the incubation period, the cells were placed on ice, washed with ice cold medium and subjected to mild acid wash (0.2 M Na-acetate buffer, pH 4.5, and 0.5 M NaCl) for 2 minutes, followed by 2 washes in ice cold medium. […] Finally, cells were lysed in 1 N NaOH, and their radioactivity was determined.

The next assay has as its system MCF10A cells. The assay can be described thus: MTS proliferation assay of MCF10A cells. Format: cell-based, human. As to conditions: 72 h, absence or presence of AREG, relatively high mAb concentrations. The method, then: Proliferation assays using MTS were performed on MCF10A cells (1,000 cells per well). C ells were plated on the day before and treated for 72 h with the indicated mAbs (1, 5, 10, 20 or 50 ug/mL). Increasing concentrations of the indicated mAbs (either alone or in combination with AREG) were used in medium supplemented with 1% serum and AREG (either at 10 or 100 ng/mL).

Assay [3] deals with T2, human AREG (Homo sapiens, UniProt P15514).
T2 sequence (P15514 101-198 limits assumed): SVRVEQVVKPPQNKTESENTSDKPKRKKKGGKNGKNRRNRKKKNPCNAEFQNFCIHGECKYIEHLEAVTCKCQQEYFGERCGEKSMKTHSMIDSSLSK
The experiment in a line: Plasmon resonance and immunoblotting of EGF-family ligands with AR30. The assay is classed as binding. Here is the method:
FIGS. 6A-6F illustrate AR30, an anti-AREG monoclonal antibody, that inhibits auto-phosphorylation of EGFR. FIG. 6A is a photograph of a Coomassie blue staining of an acrylamide gel showing a purified fraction of AREG isolated from bacteria and purified on a NiNTA column. The molecular weight marker lane indicates a 15 kilodalton band; FIG. 6B, cells were seeded in a 24 well plate, washed and incubated with increasing concentrations of the purified TRX-AREG fusion protein (8.5, 85, 850, 8500 ng/ml). […]
SPR was performed on a BIAcore 3000 instrument (BIAcore, Uppsala, Sweden). […] The net signal was obtained by subtracting the blank signal (plain dextran matrix) from the signal recorded from the immobilized surface. The association phase for analyte binding to all ligands was followed for 4 minutes, and dissociation phases were monitored for 3 minutes. […] The response was monitored as a function of time (sensorgram). […]
To functionally characterize a selected anti-AREG mAb, its specificity was tested using an Enzyme-Linked Immunosorbent Assay (ELISA) assay covered with different ligands. […] The AR30 affinity to the different ligand was assessed by Surface plasmon resonance (SPR).
(In general: In western blotting, separated proteins are transferred to a membrane and probed.)

In assay [4] the test system is EGFR. The experiment in a line: AREG-induced EGFR phosphorylation in HeLa cells (immunoblot). Format: cell-based, human. As to conditions: for AREG-induced phosphorylation of EGFR: AREG 100 ng/ml, mAb 0.1-50 μg/ml, FIG. 10A. The method, then:
FIGS. 6A-6F illustrate AR30, an anti-AREG monoclonal antibody, that inhibits auto-phosphorylation of EGFR. FIG. 6A is a photograph of a Coomassie blue staining of an acrylamide gel showing a purified fraction of AREG isolated from bacteria and purified on a NiNTA column. The molecular weight marker lane indicates a 15 kilodalton band; FIG. 6B, cells were seeded in a 24 well plate, washed and incubated with increasing concentrations of the purified TRX-AREG fusion protein (8.5, 85, 850, 8500 ng/ml). […] Following a 10-min long incubation, the cells were lysed and cleared extracts immunoblotted (IB) with an anti-phosphotyrosine antibody (PY-99); FIG. 6C, 96 well plates were coated with the indicated ligands (0.1 μg/ml), and then incubated for 3 hours with three different mAbs specific to AREG. Thereafter, wells were incubated for two hours with an anti-mouse antibody conjugated to HRP, followed by a 30 minutes incubation with ATBS. […] Serum from non-immunized mice was used as a negative control; FIG. 6E, HeLa cells were pre-incubated with (or without) mAb AR30 (20 μg/mL) and increasing concentrations of AREG. Thereafter, whole cell lysates were immunoblotted (IB) using an antibody specific to the phosphorylated form of EGFR (tyrosine 1068) or an antibody to EGFR; and FIG. 6F, HeLa cells were incubated with (or without) AREG (100 ng/mL) in the presence of increasing concentrations of mAb AR30 (5, 10, 20 and 50 μg/mL). Thereafter, cells were lysed and cleared extracts immunoblotted (IB) using the indicated antibodies.
FIG. 10A illustrates that anti-AREG mAbs inhibit ligand-induced activation of EGFR. HeLa cells were incubated with (or without) AREG (100 ng/ml) in the presence of increasing concentrations of mAb AR30, mAb AR 37 or mAb AR558 (0.1, 0.2, 0.5, 0.75, 1.5, 3.5, 6.25, 12.5, 25 and 50 μg/ml). Thereafter, cells were lysed and cleared extracts immunoblotted (IB) using the indicated antibodies, including an antibody specific to the phosphorylated (active) for of EGFR (pEGFR).

For a further assay, the system named is MLS ovarian cancer cells. The experiment in a line: MLS ovarian tumor xenograft in nude mice. Format: in vivo. The note with it: MLS tumors. The method, then: FIG. 7A, female nude mice (6 weeks old) were inoculated subcutaneously with MLS ovarian cancer cells (2×10^6 per animal). Once tumors became palpable, mice were randomized into two groups. Eleven mice were injected intraperitoneally with an anti-AREG mAb (AR30; 200 μg/mouse; twice a week, on days: 8, 11, 14, 17, and 21). The control group also included 11 mice. Shown are means±S.D. values; FIG. 7B, female nude mice (6 weeks old) were inoculated subcutaneously with MLS ovarian cancer cells (2×10^6 per animal). Once tumors became palpable, mice were randomized into four groups. One group (8 mice) was injected intraperitoneally with the AR30 mAb (100 μg/mouse twice a week, on days: 8, 14, 17, 21, 24 and 28). Another group (8 mice) was treated with cisplatin (5 mg/kg; on days 8 and 21). The fourth group was treated with a combination of mAb AR30 and cisplatin. The control group included 12 mice; and FIG. 7C, the indicated MLS tumors were excised, and their average weights determined. Representative tumors were photographed.
All animal procedures were approved by the Weizmann Institute of Science's review board. Female athymic NCr-nude mice (6 weeks old) were inoculated subcutaneously with 2×10^6 human ovarian MLS cancer cells. Once tumors became palpable (5-7 days), the mice were randomized into groups and injected intraperitoneally at the indicated time points with the indicated monoclonal antibodies, chemotherapy or the combination. Tumor volumes were monitored twice a week, and body weights were measured once a week.

Assay [5] addresses T2, human AREG. The experiment in a line: Antigenic determinant comparison of anti-AREG mAbs. The assay is classed as binding. The note with it: data not shown.
In assay [6] the test system is Cal-27 human head and neck cancer cells. The experiment in a line: Cal-27 head and neck tumor xenograft in nude mice. The assay is classed as in vivo. The note with it: Cal-27 tumors, 300 μg per injection intraperitoneally twice a week. The method, then: Female nude mice were inoculated subcutaneously with Cal-27 human head and neck cancer cells (2×10^6). Once tumors became palpable (5-7 days) mice were randomized and intraperitoneally injected with saline (Control), or with anti-AR mAbs: AR30, AR37 or AR558 (each at 300 μg per injection). Mice were treated with mAbs twice a week and tumor volume was followed. Shown are averages and SD values from at least 5 mice per group.
To test the ability of anti-AREG antibodies to reduce growth of human tumor cells implanted in immunocompromised mice, Cal 27 tumor cells were used which were inoculated subcutaneously and randomized for treatment after tumors became palpable. […] Furthermore, studies testing pairs of two mAbs illustrate their enhanced anti-tumor activities (data not shown), this can be attributed to the fact that the mAbs bind to distinct antigenic determinants of amphiregulin.

For “TGF-alpha: transforming growth factor alpha, high-affinity EGFR ligand”, the “ubiquitination of EGFR” value with EGFR [1] is given as “strong ubiquitination”. Further, the EGFR downregulation with EGFR [2] was 70-75%.

B1: AR30: anti-AREG monoclonal antibody; heavy chain SEQ ID NO: 2, light chain SEQ ID NO: 16 (antibody, V domains shown)
VH: EVQLQQSGAELVRSGASVKLSCTASGFNIKDSYMHWVKQRPEQGLEWIGWVDPDNGDTEYAPEFQGRATLTADTFSSTAYLQLTSLTSEDTAVYYCNAPSTYGHYGFAYWGQGTLVTVSA
VL: DIVMTQAAPSVPVTPGESVSISCRSSKSLLHSNGKAYLYWFLQRPGQSPQLLIYRMSNLASGVPDRFSGSGSGTAFTLRISRVEAEDVGVYYCMQHLEYPLTFGAGTKLELKR
modifications: AR30 heavy chain (IgG) complete amino acids coding sequence; AR30 light chain (kappa) complete amino acids coding sequence
In the case of B1, the inhibition of proliferation entry with MCF10A cells was “Moderate inhibition”. In addition, the “binding of AR30 with human AREG” value in the assay with human AREG [3] was “high affinity binding”. For the same molecule, the “recognition of other EGFR ligands” value in the assay with human AREG [3] is “recognized no other EGFR ligand, except for the human form of HB-EGF”. Further, the “effect of AREG on receptor phosphorylation” value in the assay with EGFR [4] (AR30 5-50 μg/mL, FIGS. 6E-6F) is “only partially reduced”. The “AREG-induced phosphorylation of EGFR” value with EGFR [4] is “low concentrations of the antibodies were sufficient for blocking”. Further, in the assay on EGFR [4] (data not shown), the “downstream signaling to ERK (phosphorylated ERK)” value was “insufficient for blocking downstream signaling to ERK”. In addition, the tumor growth entry in the assay on MLS ovarian cancer cells (AR30 100 μg/mouse twice a week, cisplatin 5 mg/kg, FIG. 7B) is “only mildly inhibited”; with MLS ovarian cancer cells (antibodies injected into the peritoneum, six weeks, data not shown) it was “partly inhibited tumor growth”; in assay [6], “comparably inhibit tumor growth”. The “anti-tumor effect compared with cetuximab” value in the assay with MLS ovarian cancer cells (six weeks, data not shown) is listed as “at least as effective as cetuximab”. Moreover, in the assay with human AREG [5], the antigenic determinant targeted entry is “engages a different determinant of human AREG”.

B2: AR558: anti-AREG monoclonal antibody from AREG knockout mice; heavy chain SEQ ID NO: 30, light chain SEQ ID NO: 46 (antibody, V domains shown)
VH: EVQLQQSGAELVKPGASVKLSCTASGFNIKDTYMHWVKQRPEQGLEWIGRIDPANRSTKYDPKFQGKATITADTSSNTADLHLSSLTSEDTAVYYCARLYGDSVWYFDVWGAGTTVTVSSAKT
VL: QIVLTQSPAILSASPGEKVTMTCRAGSSVNYIHWYQQKPGSSPKPWIYATSNLASGVPARFSGSGSGTSYSLTISRVEAEDAATYYCQQWSGYPPMLTFGAGTKLELKR
modifications: AR558 heavy chain IgG complete amino acids coding sequence; AR558 light chain (kappa) complete amino acids coding sequence
As to B2, the inhibition of proliferation entry in the assay on MCF10A cells was “Moderate inhibition”. Besides, in the assay on EGFR [4], the “AREG-induced phosphorylation of EGFR” value is given as “low concentrations of the antibodies were sufficient for blocking”. Also, in the assay with human AREG [5], the antigenic determinant targeted entry was “engages a different determinant of human AREG”. Besides, in assay [6], the tumor growth entry is “exceeded the activity of either antibody”.

The values above are taken from US10640556B2, “Anti amphiregulin antibodies, compositions comprising same and uses thereof” (Yeda Research and Development Co. Ltd., priority 2015, dated 2020).
